For experiment [1], the target named is T1, human interleukin 6 (hIL-6) (UniProt P05231 30-212). The experiment is described as follows: ELISA. (In general: ELISA stands for enzyme-linked immunosorbent assay.)
Experiment [2] deals with T1, human interleukin 6 (hIL-6). Kind of experiment: ELISA. This is another data set of the same source.

In patent US20240083999A1 (published 2024) one finds EC50 data, which are given here for 6 molecules.

Read-outs that look alike come from different tables or passages of the source.

T1 sequence (P05231 30-212): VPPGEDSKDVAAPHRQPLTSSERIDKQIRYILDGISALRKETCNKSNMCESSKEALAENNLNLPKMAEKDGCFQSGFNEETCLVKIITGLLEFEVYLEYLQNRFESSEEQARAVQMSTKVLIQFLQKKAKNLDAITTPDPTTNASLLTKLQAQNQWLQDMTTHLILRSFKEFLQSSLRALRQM

B1: hIL-6-binding VHH JYK-D12 (Trx/JYK-D12/E) (VHH)
VHH: QLQLVESGGGLVQPGGSLGLSCAASGFTLAYYGIGWFRQAPGKEREGVACISSSDLSTYYADSVKGRFTISRDNAKDTVYLQMNSLKPEDTAVYYCAAGTWDLKFGYSRSNCVRSYEYDYWGQGTQVTVSS
For orientation: EC50 means the concentration giving half of the maximal effect. Read a low EC50 as greater potency. Regarding B1, a half-maximal effect in experiment [1] (EC50) was put at 0.324 nM.

B2: hIL-6-binding VHH JYK-F12 (Trx/JYK-F12/E) (VHH)
VHH: QVQLAETGGGSVQAGGSLTLSCAASGRTFSSRAMGWFRQAPGKEREFVAVISWTGSPYYTDSVKGRFTISRDDAKNTVYLQMNSLKPEDTAVYYCAATSEHVMLVVTTRGGYDYWGQGTQVTVSS
The molecule B2 came in with an EC50 in experiment [1] of 14.4 nM.

B3: hIL-6-binding VHH JYK-H9 (Trx/JYK-H9/E) (VHH)
VHH: QLQLVETGGGLVQPGGSLRLSCAASGFTLDYYAIGWFRQAPGKEREGVSCLSSSDRSTYYVDSVKGRFTISRDDDKNTAYLQMNSLKPEDTATYYCAAGTWDLKWGYNISACVGSYEYDYWGQGTQVTVSS
For the molecule B3, in experiment [1], the response was half-maximal at 0.811 nM (EC50).

B4: JYK-D12/JYK-D12 homodimer (VHH)
chain: QVQLVESGGGLVQPGGSLGLSCAASGFTLAYYGIGWFRQAPGKEREGVACISSSDLSTYYADSVKGRFTISRDNAKDTVYLQMNSLKPEDTAVYYCAAGTWDLKFGYSRSNCVRSYEYDYWGQGTQVTVSSGGGGSGGGGSGGGGSQVQLVESGGGLVQPGGSLGLSCAASGFTLAYYGIGWFRQAPGKEREGVACISSSDLSTYYADSVKGRFTISRDNAKDTVYLQMNSLKPEDTAVYYCAAGTWDLKFGYSRSNCVRSYEYDYWGQGTQVTVSS
Regarding B4, the half-maximal effective concentration (EC50) in experiment [2] is 0.0842 nM.

B5: hIL-6-binding VHH JYK-A1 (Trx/JYK-A1/E) (VHH)
VHH: QLQLAETGGGLVQPGGSLRLSCAASGFTLDYYAVGWFRQAPGKEREGISCISSSDLKTYYADSVKGRFTISRDYAKSTVSLQMNSLKPEDTGVYYCAAGTWDLKFGYNISACVGSYEYDYWDQGTQVTVSS
Molecule B5 showed an EC50 in experiment [1] of 0.795 nM.

B6: hIL-6-binding VHH JYK-A9 (Trx/JYK-A9/E) (VHH)
VHH: QVQLVESGGGLVQAGDSLTLSCAASGRPFSSFAMGWFRQAPGKEREFVAAITWSRGTTHYADSVKGRFTISGDNAKNTVFLQMNSLKPEDTAVYYCAAADGWKVVSTASPAYDYWGQGTQVTVSS
B6: the EC50 in experiment [1] came to 27.7 nM. Compared with the last molecule, the EC50 is about 35-fold higher.
